The values that follow come from patent US20170362276A1 (published 2017).

For test [1], the target named is human mu opioid receptor (human) (UniProt P35372). The test can be described thus: radioligand competition, 3H-DAMGO, membranes of CHO cells expressing cloned human mu receptor.
Test [2] addresses T1, human delta opioid receptor (human, UniProt P41143 1-372). The test can be described thus: ratio of Ki at delta to Ki at mu, radioligand competition.
The target in test [3] is human mu opioid receptor (human) (UniProt P35372). The test can be described thus: cell-based or functional assay.
The target of test [4] is human kappa opioid receptor (human) (UniProt P41145). The test can be described thus: cell-based or functional assay.
Test [5] addresses T1, human delta opioid receptor. The test can be described thus: radioligand competition, 3H-DPDPE, membranes of CHO cells expressing cloned human delta receptor.
Test [6] concerns the target human kappa opioid receptor (human) (UniProt P41145). Put plainly: radioligand competition, 3H-U69593, membranes of CHO cells expressing cloned human kappa receptor.
Test [7] has the same target. The test can be described thus: ratio of Ki at kappa to Ki at mu, radioligand competition.
The target in test [8] is T1, human delta opioid receptor. Put plainly: cell-based or functional assay.

Positions of bridges follow the written chain, without caps; N, C: chain ends. Non-standard residues stand in square brackets, D forms with d. No end group written: not given here.

For ck1, Tyr-c[D-Lys-Trp-Phe] (peptide), the results for the Ki in test [1], in test [5] and in test [6] were 0.00032 µM, 0.028 µM and 0.035 µM, respectively. Besides, in test [2], the Selectivity Delta/Mu turned out to be 90. The Agonist EC50 (35S-GTPγS assay) in test [3] was determined as 0.00021 µM; in test [4], 0.47 µM; in test [8] it was 0.138 µM. Also, in test [3], the efficacy of mu activation (35S-GTPγS) is over 90%. This molecule returned a Selectivity kappa/mu (agonist EC50) in test [4] of 2240. In addition, in test [7], the Selectivity Kappa/Mu came to 111. Further, the Selectivity delta/mu (agonist EC50) in test [8] worked out at 658.
Regarding ck2, Tyr-c[D-Lys-Phe-Phe] (peptide), the Ki in test [1] is 0.00036 µM; in test [5] it was 0.003 µM; in test [6], 0.012 µM. Also, in test [2], the Selectivity Delta/Mu is 9. Also, the Agonist EC50 (35S-GTPγS assay) in test [3] turned out to be 0.00015 µM; in test [4] it was 0.206 µM; in test [8] it was 0.007 µM. Moreover, the efficacy of mu activation (35S-GTPγS) in test [3] was over 90%. The Selectivity kappa/mu (agonist EC50) in test [4] came to 1370. Further, the Selectivity Kappa/Mu in test [7] is 33. For the same molecule, the Selectivity delta/mu (agonist EC50) in test [8] worked out at 44.

B1: Compound 2, Tyr-c[D-Glu-Phe-Phe-Lys]-NH2 (peptide)
peptide: Y[dE]FFK-NH2
modifications: lactam 2-5; N-terminus assumed
SMILES: NC(=O)[C@@H]1CCCCNC(=O)CC[C@@H](NC(=O)[C@@H](N)Cc2ccc(O)cc2)C(=O)N[C@@H](Cc2ccccc2)C(=O)N[C@@H](Cc2ccccc2)C(=O)N1
B1: the “Delta Antagonist IC 50” value in test [8] was 2.75 µM.

B2: Compound 1, Tyr-c[D-Lys-Trp-Phe-Glu]-NH2 (peptide)
peptide: Y[dK]WFE-NH2
modifications: lactam 2-5; N-terminus assumed
SMILES: NC(=O)[C@@H]1CCC(=O)NCCCC[C@@H](NC(=O)[C@@H](N)Cc2ccc(O)cc2)C(=O)N[C@@H](Cc2c[nH]c3ccccc23)C(=O)N[C@@H](Cc2ccccc2)C(=O)N1
For the molecule B2, the “Delta Antagonist IC 50” value in test [8] is 0.105 µM.

B3: Compound 5, Tyr-c[D-Lys-Trp-Phe-Asp]-NH2 (peptide)
peptide: Y[dK]WFD-NH2
modifications: lactam 2-5; N-terminus assumed
SMILES: NC(=O)[C@@H]1CC(=O)NCCCC[C@@H](NC(=O)[C@@H](N)Cc2ccc(O)cc2)C(=O)N[C@@H](Cc2c[nH]c3ccccc23)C(=O)N[C@@H](Cc2ccccc2)C(=O)N1
As for B3, in test [8], the “Delta Antagonist IC 50” value worked out at 0.557 µM.

B4: endomorphin-2 (Tyr-Pro-Phe-Phe-NH2) (peptide)
peptide: YPFF-NH2
Take B4: in test [8], the “Delta Antagonist IC 50” value worked out at 30 µM.
